The target of the test is human complement C3a (human, UniProt P01024 672-748). In words: SPR.

These results are taken from paper PMC10140031 (2023).

Chain of human complement C3a (P01024 672-748): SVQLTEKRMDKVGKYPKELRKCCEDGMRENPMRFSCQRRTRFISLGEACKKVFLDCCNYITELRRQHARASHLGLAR

B1: His-ISG65_(18-363)-Avi, C-terminally biotinylated (domain or fragment)
chain: LLVIGSEDNRVPGDKKLTKEGAAALCKMKHLADKVAKERSQELKDRTQNFAGYIEFELYRIDYWLEKLNGPKGRKDGYAKLSDSDIEKVKEIFNKAKDGITKQLPEAKKAGEEAGKLHTEVKKAAENARGQDLDDDTAKSTGLYRVLNWYCITKEERHNATPNCDGIQFRKHYLSVNRSAIDCSSTSYEENYDWSANALQVALNSWEDVKPKKLESAGSDKNCNIGQSSESHPCTMTEEWQTPYKETVEKLRELEDAYQRGKKAHDAMLGYANTAYAVNTKVEQEKPLTEVIAAAKEAGKKGAKIIIPAAAPATPTNSTKNDDSAPTEHVDRGIATNETQVEVGID
modifications: biotin on the C-terminal Avi-tag (site-specific Avi-tag biotinylation)
B1: the affinity, expressed as Kd, was 18 µM.
